The text below walks through data of patent US20120213781A1.

Bridges are numbered along the chain shown (N, C = ends). Where no end group is shown, it is not given here.

Broadly, the EC50 (read off the curve) is the concentration needed to bring the measured effect to its halfway point.

This assay concerns the target recombinant human angiopoietin-2 (rhAng2) (human) (UniProt O15123). In words: direct ELISA on rhAng2-coated wells, detection by HRP-anti-His tag antibody, OD450. (In general: In an ELISA, binding on a coated surface is turned into a signal by an enzyme label.)
Sequence of UniProt O15123 (O15123 19-496 limits assumed): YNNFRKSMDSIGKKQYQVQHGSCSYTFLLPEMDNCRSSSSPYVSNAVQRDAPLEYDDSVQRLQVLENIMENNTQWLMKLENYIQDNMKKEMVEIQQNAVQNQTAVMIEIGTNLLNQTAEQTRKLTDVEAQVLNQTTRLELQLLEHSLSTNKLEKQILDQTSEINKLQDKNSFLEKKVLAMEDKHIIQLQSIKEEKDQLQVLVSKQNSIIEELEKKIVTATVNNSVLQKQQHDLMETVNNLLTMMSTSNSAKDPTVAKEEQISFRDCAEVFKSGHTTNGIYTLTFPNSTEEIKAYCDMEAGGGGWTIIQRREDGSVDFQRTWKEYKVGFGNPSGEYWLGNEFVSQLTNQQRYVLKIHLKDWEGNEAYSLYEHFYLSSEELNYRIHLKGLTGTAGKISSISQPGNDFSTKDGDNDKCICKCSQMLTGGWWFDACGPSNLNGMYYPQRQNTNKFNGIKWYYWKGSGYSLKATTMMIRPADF

B1: Construct 12 (designed binder, not shown: small tags and cut ends)
chain: LWDDCYSFPNPPHCYNSP
modifications: disulfide 5-14 (inferred); not fully specified (N-terminus, C-terminus); also: ELP-MRD fusion, type and number of ELP repeats not given here
Take B1: the concentration giving a half-maximal response (EC50 (read off the curve)) turned out to be 9 nM.

B2: Construct 13 (designed binder, not shown: small tags and cut ends)
chain: LWDDCYSFPNPPHCYNSP
modifications: disulfide 5-14 (inferred); not fully specified (N-terminus, C-terminus); also: ELP-MRD fusion, type and number of ELP repeats not given here
As to B2, the EC50 (read off the curve) was determined as 9 nM.
